Laboratory results published in the supplement of paper PMC10567573.

B1: CDC25A (parent)
chain: QLIDPDENKENEAFEFKKPVRPVS
B2: SPDEF (parent)
chain: YPEDSSWAAKAPGASSREEPPEEP

Variants of: B1
Test: protein stability index of a GFP-peptide fusion (GPS, HEK-293T) (PSI 1-6); higher = more stable
Conditions: c terminus: a fixed tail appended
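Note: lentivirally expressed fusions sorted by FACS into six bins by GFP to DsRed ratio, PSI derived from sequencing read proportions per bin multiplied by bin number.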

Protein stability index, by site and new letter:
P22: G 3.66 | K 3.25 | R 4.23 | F 3.69 | M 4.08 | S 4.05 | N 4.14 | V 4.05 | T 2.8 | L 3.45 | D 4.45 | I 4.31 | Y 4.71
Q1: P 4.06 | A 4.36 | D 2.88 | C 3.81 | S 4.43 | T 3.58 | N 3.83 | F 4.05
N8: M 4.09 | H 4.59 | S 4.05 | P 4.28 | I 4.7 | L 4.52 | V 4.94 | D 4.28 | R 4.86 | K 4.5 | F 4.08 | E 3.95 | G 5.06
K18: N 4.4 | A 3.7 | D 4.47 | I 3.97 | L 4.39 | C 4.1 | Y 4 | F 4.33 | V 4.23 | M 3.66 | P 4.29 | E 5.52 | G 4.04 | R 3.89
R21: W 3.28 | T 4.04 | Q 4.67 | A 3.27 | E 4.33 | D 4.25 | I 3.39 | K 4.04 | G 4.97 | H 3.85 | P 4.46
F16: K 3.99 | G 3.76 | Q 3.73 | H 4.56 | W 4.33 | L 4.56 | C 4.6 | R 4.53 | M 3.73 | N 4.08 | S 4.21 | Y 3.58 | I 3.35 | D 4.46
A13: M 4.11 | Q 4.02 | Y 3.99 | N 3.77 | H 3.26 | I 4.23 | G 3.71 | R 3.24 | E 3.57 | S 3.85 | D 4.34
N11: M 4.25 | F 4.02 | Q 4.32 | W 4.02 | A 3.81 | I 4.53 | E 4.22 | K 4.56 | T 4.99 | Y 4.29 | V 4.63 | D 4.68
E7: M 3.95 | P 4.68 | H 3.94 | Y 3.45 | C 4 | N 3.42 | R 3.92 | S 3.37 | V 4.11 | I 4.06 | G 3.02 | K 4.59 | L 3.33
D4: F 4.09 | K 3.87 | N 3.2 | C 3.37 | I 3.83 | T 3.65 | H 4.23 | E 3.99
I3: C 3.92 | K 3.86 | H 4.59 | G 4.58 | V 4.05 | D 4.64 | Q 3.95 | M 3.75 | A 4.23 | Y 3.74 | P 4.3 | F 3.91 | T 4.12 | N 3.6
E12: A 3.34 | F 2.87 | H 3.21 | V 3.36 | P 4.17 | L 3.56 | R 3.1 | N 3.27 | M 2.78 | C 3.55 | W 3.19 | Y 3.38
E10: Y 4.78 | G 4.33 | Q 4.29 | V 3.36 | M 3.71 | S 4.2 | K 4.35 | T 4.3 | A 4.25 | W 4.02 | P 3.1
D6: W 3.59 | C 4.51 | G 3.64 | H 3.94 | F 3.88 | P 4.53 | R 3.58 | E 3.88 | L 3.23 | I 4.22
F14: I 4.04 | S 4.5 | H 4.42 | M 3.8 | K 5 | A 4.68 | E 4.78 | L 4.21 | R 3.79 | D 5.04 | G 4.53 | C 4.55 | V 4.55 | N 3.98 | Q 3.94 | W 3.2
K17: L 3.36 | Q 4.03 | R 3.78 | V 3.98 | H 3.84 | I 3.54 | T 3.58 | M 3.03 | A 4.44 | N 3.15 | P 4.27
E15: S 4 | K 4.3 | P 4.16 | F 3.41 | T 3.92 | V 3.36 | G 2.89 | R 2.37 | H 3.57 | A 4.01 | D 3.77 | M 4.37
L2: M 3.72 | D 4.51 | C 4.64 | P 5.03 | A 4.69 | T 4.31 | F 3.35 | N 4.58 | W 3.43 | Y 4.17
K9: D 4.97 | N 4.65 | C 4.54 | P 4.62 | A 4.37 | I 3.89 | F 4.04 | Y 5.01 | R 4.21 | Q 4.74 | S 4.39 | T 4
S24: E 4.67 | K 4.72 | N 3.34 | P 4.33 | M 3.49 | W 3.3 | F 3.88 | Q 4.25 | A 4.16 | V 3.76 | D 5.24 | R 3.58
P5: I 3.07 | V 3.74 | G 3.9 | F 2.88 | R 3.66 | Q 3.87 | M 3.88 | Y 2.85 | W 3.51
V20: D 4.31 | W 3.59 | C 3.61 | N 4.63 | I 4 | T 4.54 | M 3.82 | A 4.09 | H 4.3 | S 4 | K 4.67 | P 4.43
P19: T 4.09 | S 4.09 | C 3.6 | M 3.74 | V 4.42 | N 4.43 | I 4.07 | F 4.44 | G 4.06 | W 3.87 | A 4.44 | Q 4.02 | H 3.95 | L 3.52
V23: S 3.09 | G 4.05 | I 3.43 | D 4.41 | R 3.11 | C 3.9 | F 3.89

Variants of: B2
Test: as above
Conditions: c terminus: a fixed tail appended

Protein stability index of substitutions, site by site:
E23: S 3.1 | G 3.9 | A 4.06 | C 4.3 | R 3.6 | K 2.69 | Y 3.65 | F 3.89 | N 3.58 | L 3.45 | D 4.44
E22: D 3.4 | H 4.06 | F 3.43 | V 4.23 | G 2.79 | P 3.06 | A 4.38 | Y 3.78 | L 3.92 | K 3.88 | S 2.71 | T 4.31 | C 3.49
P21: T 3.64 | G 4.04 | Y 4.3 | W 3.66 | R 4.25 | E 4.26 | K 3.29 | N 4.12 | A 3.63 | L 4.04 | F 3.76 | V 3.91 | H 4.13
E19: W 3.53
P20: Q 3.46 | I 3.82 | G 4.43 | K 3.89 | T 3.8 | V 4.26 | L 3.11 | E 4.2 | N 3.62 | R 2.98
P24: Y 4.17 | R 3.86 | N 4.54 | C 4.4 | E 3.48 | H 3.42 | D 4.17
